Laboratory results as given in the supplement of paper PMC12338614.
± gives the uncertainty stated by the source.

B1: library; numbered along this chain (parent)
chain: MEVVDPQQLGMFTEGELMSVGMDTFIHRIDSTEVIYQPRRKRAKLIGKYLMGDLLGEGSYGKVKEVLDSETLCRRAVKILKKKKLRRIPNGEANVKKEIQLLRRLRHKNVIQLVDVLYNEEKQKMYMVMEYCVCGMQEMLDSVPEKRFPVCQAHGYFCQLIDGLEYLHSQGIVHKDIKPGNLLLTTGGTLKISDLGVAEALHPFAADDTCRTSQGSPAFQPPEIANGLDTFSGFKVDIWSAGVTLYNITTGLYPFEGDNIYKLFENIGKGSYAIPGDCGPPLSDLLKGMLEYEPAKRFSIRQIRQHSWFRKKHPPAEAPVPIPPSPDTKDRWRSMTVVPYLEDLHGADEDEDLFDIEDDIIYTQDFTVPGQVPEEEASHNGQRRGLPKAVCMNGTEAAQLSTKSRAEGRAPNPARKACSASSKIRRLSACKQQ

Variants of: B1
Assay: STK11 functional score (HeLa growth suppression), rescaled enrichment; synonymous median = 1, nonsense median = 0 (normalised score)
Details: with HeLa; variant type: missense
Procedure: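 Deep mutational scan (TileSeq/POPCode codon randomisation) of full-length codon-optimised STK11 cDNA integrated at a Bxb1 landing pad (AAVS1) in HeLa cells. Restoring functional STK11 suppresses HeLa proliferation. Variant frequencies were measured by NGS before and after about two weeks of growth. The error-corrected enrichment log-ratio was rescaled so that synonymous median = 1 and nonsense median = 0, scores above 1 were compressed, and codon-level and three biological replicate scores were combined; error is the bootstrapped standard error. Scale: synonymous median = 1, nonsense median = 0; below 0.5 = damaging.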

Going from MEVVDPQQLGMFTEGELMSVGMDTFIHRIDSTEVIYQPRRKRAKLIGKYLMGDLLGEGSYGKVSEVLDSETLCRRAVKILKKKKLRRIPNGEANVKKEIQLLRRLRHKNVIQLVDVLYNEEKQKMYMVMEYCVCGMQEMLDSVPEKRFPVCQAHGYFCQLIDGLEYLHSQGIVHKDIKPGNLLLTTGGTLKISDLGVAEALHPFAADDTCRTSQGSPAFQPPEIANGLDTFSGFKVDIWSAGVTLYNITTGLYPFEGDNIYKLFENIGKGSYAIPGDCGPPLSDLLKGMLEYEPAKRFSIRQIRQHSWFRKKHPPAEAPVPIPPSPDTKDRWRSMTVVPYLEDLHGADEDEDLFDIEDDIIYTQDFTVPGQVPEEEASHNGQRRGLPKAVCMNGTEAAQLSTKSRAEGRAPNPARKACSASSKIRRLSACKQQ [K64S] to MEVVDPQQLGMFTEGELMSVGMDTFIHRIDSTEVIYQPRRKRAKLIGKYLMGDLLGEGSYGKVKEVLDSETLCRRAVKILKKKKLRRIPNGEANVKKEIQLLRRLRHKNVIQLVDVLYNEEKKKMYMVMEYCVCGMQEMLDSVPEKRFPVCQAHGYFCQLIDGLEYLHSQGIVHKDIKPGNLLLTTGGTLKISDLGVAEALHPFAADDTCRTSQGSPAFQPPEIANGLDTFSGFKVDIWSAGVTLYNITTGLYPFEGDNIYKLFENIGKGSYAIPGDCGPPLSDLLKGMLEYEPAKRFSIRQIRQHSWFRKKHPPAEAPVPIPPSPDTKDRWRSMTVVPYLEDLHGADEDEDLFDIEDDIIYTQDFTVPGQVPEEEASHNGQRRGLPKAVCMNGTEAAQLSTKSRAEGRAPNPARKACSASSKIRRLSACKQQ [Q123K], the STK11 functional score falls from 1.53 ± 0.19 to 0.3 ± 0.27.

Going from MEVVDPQQLGMFTEGELMSVGMDTFIHRIDSTEVIYQPRRKRAKLIGKYLMGDLLGEGSYGKVKEVLDSETLCRRAVKILKKKKLRRIPNGEANVKKEIQLLRRLRHKNVIQLVDVLYNEEKQKMYMVMEYCVCGMQEMLDSVPEKRFPVCQAHGYFCQLIDGLEYLHSQGIVHKDIKPGNLLLTTGGTLKISDLGVAEALHPFAADDTCRTSQGSPAFQPPEIANGLDTFSGFKVDIWSAGVTLYNITTGLYPFEGDNIYKLFENIGKGCYAIPGDCGPPLSDLLKGMLEYEPAKRFSIRQIRQHSWFRKKHPPAEAPVPIPPSPDTKDRWRSMTVVPYLEDLHGADEDEDLFDIEDDIIYTQDFTVPGQVPEEEASHNGQRRGLPKAVCMNGTEAAQLSTKSRAEGRAPNPARKACSASSKIRRLSACKQQ [S271C] to MEVVDPQQLGMFTEGELMSVGMDTFIHRIDSTEVIYQPRRKRAKLIGKYLMGDLLGEGSYGKVKEVLDSETLCRRAVKILKKKKLRRIPNGEANVKKEIQLLRRLRHKNVIQLVDVLYNEEKQKMYMVMEYCVVGMQEMLDSVPEKRFPVCQAHGYFCQLIDGLEYLHSQGIVHKDIKPGNLLLTTGGTLKISDLGVAEALHPFAADDTCRTSQGSPAFQPPEIANGLDTFSGFKVDIWSAGVTLYNITTGLYPFEGDNIYKLFENIGKGSYAIPGDCGPPLSDLLKGMLEYEPAKRFSIRQIRQHSWFRKKHPPAEAPVPIPPSPDTKDRWRSMTVVPYLEDLHGADEDEDLFDIEDDIIYTQDFTVPGQVPEEEASHNGQRRGLPKAVCMNGTEAAQLSTKSRAEGRAPNPARKACSASSKIRRLSACKQQ [C134V], the STK11 functional score rises from 0.412 ± 0.07 to 0.604 ± 0.11.

MEVVDPQQLGMFTEGELMSVGMDTFIHRIDSTEVIYQPRRKRAKLIGKYLMGDLLGEGSYGKVKEVLDSETLCRRAVKILKKKKLRRIPNGEANVKKEIQLLRRLRHKNVIQLVDVLYNEEKQKMYMVMEYCVCGMQEMLDSVPEKRFPVCQAHGYFCQLIDGLEYLHSQGIVHKDIKPGNLLLTTGGTLKISDLGVAEALHPFAADDTCRTSQGSPAFQPPEIANGLDTFSGFKVDIWSAGVTLYNITTGLYPFEGDNIYKLFENIGKGSYAIPGDCGPPLSDLLKGMLEYHPAKRFSIRQIRQHSWFRKKHPPAEAPVPIPPSPDTKDRWRSMTVVPYLEDLHGADEDEDLFDIEDDIIYTQDFTVPGQVPEEEASHNGQRRGLPKAVCMNGTEAAQLSTKSRAEGRAPNPARKACSASSKIRRLSACKQQ [E293H] and MEVVDPQQLGMFTEGELMSVGMDTFIHRIDSTEVIYQPRRKRAKLTGKYLMGDLLGEGSYGKVKEVLDSETLCRRAVKILKKKKLRRIPNGEANVKKEIQLLRRLRHKNVIQLVDVLYNEEKQKMYMVMEYCVCGMQEMLDSVPEKRFPVCQAHGYFCQLIDGLEYLHSQGIVHKDIKPGNLLLTTGGTLKISDLGVAEALHPFAADDTCRTSQGSPAFQPPEIANGLDTFSGFKVDIWSAGVTLYNITTGLYPFEGDNIYKLFENIGKGSYAIPGDCGPPLSDLLKGMLEYEPAKRFSIRQIRQHSWFRKKHPPAEAPVPIPPSPDTKDRWRSMTVVPYLEDLHGADEDEDLFDIEDDIIYTQDFTVPGQVPEEEASHNGQRRGLPKAVCMNGTEAAQLSTKSRAEGRAPNPARKACSASSKIRRLSACKQQ [I46T] are within error of each other in STK11 functional score: 1 ± 0.28 for the first, 1.24 ± 0.27 for the second.

MEVVDPQQLGMFTEGELMSVGMDTFIHRIDSTEVIYQPRRKRAKLIGKYLMGDLLGEGSYGKVKEVLDSETLCRRAVKILKKKKLRRIPNGEANVKKEIQLLRRLRHKNVIQLVDVLYNEEKQKMYMVMEYCVCGMQEMLDSVPEKRFPVRQAHGYFCQLIDGLEYLHSQGIVHKDIKPGNLLLTTGGTLKISDLGVAEALHPFAADDTCRTSQGSPAFQPPEIANGLDTFSGFKVDIWSAGVTLYNITTGLYPFEGDNIYKLFENIGKGSYAIPGDCGPPLSDLLKGMLEYEPAKRFSIRQIRQHSWFRKKHPPAEAPVPIPPSPDTKDRWRSMTVVPYLEDLHGADEDEDLFDIEDDIIYTQDFTVPGQVPEEEASHNGQRRGLPKAVCMNGTEAAQLSTKSRAEGRAPNPARKACSASSKIRRLSACKQQ [C151R] and MEVVDPQQLGMFTEGELMSVGMDTFIHRIDSTEVIYQPRRKRAKLIGKYLMGDLLGEGSYGKVKEVLDSETLCRRAVKILKKKKLRRIPNGEANVKKEIQLLRRLRHKNVIQLVDVLYNEEKQKMYMVMEYCVCGMQEMLDSVPEKRFPVCQAHGYFCQLIDGLEYLHSQGIVHKDIKPGNLLLTTGGTLKISDLGVAEALHPFAADDTCRTSQGSPAFQPPEIANGLDTFEGFKVDIWSAGVTLYNITTGLYPFEGDNIYKLFENIGKGSYAIPGDCGPPLSDLLKGMLEYEPAKRFSIRQIRQHSWFRKKHPPAEAPVPIPPSPDTKDRWRSMTVVPYLEDLHGADEDEDLFDIEDDIIYTQDFTVPGQVPEEEASHNGQRRGLPKAVCMNGTEAAQLSTKSRAEGRAPNPARKACSASSKIRRLSACKQQ [S232E] are within error of each other in STK11 functional score: 1.07 ± 0.59 for the first, 1.36 ± 0.33 for the second.

First: MEVVDPQQLGMFTEGELMSVGMDTFIHRIDSTEVIYQPRRKRAKLIGKYLMGDLLGEGSYGKVKEVLDSETLCRRAVKILKKKKLRRIPNGEANVKKEIQLLRRLRHKNVIQLVDVLYNEEKQKMYMVMEYCVCGMQEMLDSVPEKRFPVCQAHGYFCQLIDGLEYLHSQGIVHKDIKPGNLLLTTGGTLKISDLGVAEALHPFAADDTCRTSQGSPAFQPPEIANGLDTFSGFKVDIWSAGVTLYNITTGLYPFEGDNIYKLFENIGKGSYAIPGDCGPPLSDLLKGMLEYEPAKRFSIRQIRQHSWFRKKHAPAEAPVPIPPSPDTKDRWRSMTVVPYLEDLHGADEDEDLFDIEDDIIYTQDFTVPGQVPEEEASHNGQRRGLPKAVCMNGTEAAQLSTKSRAEGRAPNPARKACSASSKIRRLSACKQQ [P314A]
Second: MEVVDPQQLGMFTEGELMSVGMDTFIHRIDSTEVIYQPRRKRAKLIGKYLMGDLLGEGSYGKVKEVLDSETLCRRAVKILKKKKLRRIPNGEANVKKEIQLLRRLRHKNVIQLVDVLYNEEKQKMYMVMEYCVCGMQEMLDSVPEKRFPVCQAHGYFCQLIDGLEYLHSQGIVHKDIKPGNLLLTTGGTLKISDLGVAEALHPFAADDTCRTSQGSPAFQPPEIANGLDTFSGFKVDIWSAGVTLYNITTGLYPFEGDNIYKLFENIGKGSYAIPGDCGPPLSDLLKGMLEYEPAKRFSIRQIRQHDWFRKKHPPAEAPVPIPPSPDTKDRWRSMTVVPYLEDLHGADEDEDLFDIEDDIIYTQDFTVPGQVPEEEASHNGQRRGLPKAVCMNGTEAAQLSTKSRAEGRAPNPARKACSASSKIRRLSACKQQ [S307D]
The STK11 functional score of the first is lower: 1.13 ± 0.17 for the first, 1.49 ± 0.16 for the second.

Compared with MEVVDPQQLGMFTEGELMSVGMDTFIHRIDSTEVIYQPRRKRAKLIGKYLMGDLLGEGSYGKVKEVLDSETLCRRAVKILKKKKLRRIPNGEANVKKEIQLLRRLRHKNVIQLVDVLYNEEKQKMYMVMEYCVCGMQEMLDSVPEKRFPVCQAHGYFCQLIDGLEYLHSQGIVHKDIKPGNLLLTTGGTLKISDLGVAEALHPFAADDTCRTSQGSPAFQPPEIANGLDTFSGFKVDIWSAGVTLYNITEGLYPFEGDNIYKLFENIGKGSYAIPGDCGPPLSDLLKGMLEYEPAKRFSIRQIRQHSWFRKKHPPAEAPVPIPPSPDTKDRWRSMTVVPYLEDLHGADEDEDLFDIEDDIIYTQDFTVPGQVPEEEASHNGQRRGLPKAVCMNGTEAAQLSTKSRAEGRAPNPARKACSASSKIRRLSACKQQ [T250E], MEVVDPQQLGMFTEGELMSVGMDTFIHRIDSTEVIYQPRRKRAKLIGKYLMGDLLGEGSYGKVKEVLDSETLCRRAVKILKKKKLRRIPNGEANVKKEIQLLRRLRHKNVIQLVDVLYNEEKQKMYMVMEYCVCGMQEMLDSVPEKRFPVCQAHGYFCQLIDGLEYLHSQGIVHKDIKPGNLLLTTGGTLKIWDLGVAEALHPFAADDTCRTSQGSPAFQPPEIANGLDTFSGFKVDIWSAGVTLYNITTGLYPFEGDNIYKLFENIGKGSYAIPGDCGPPLSDLLKGMLEYEPAKRFSIRQIRQHSWFRKKHPPAEAPVPIPPSPDTKDRWRSMTVVPYLEDLHGADEDEDLFDIEDDIIYTQDFTVPGQVPEEEASHNGQRRGLPKAVCMNGTEAAQLSTKSRAEGRAPNPARKACSASSKIRRLSACKQQ [S193W] is lower in STK11 functional score: 0.89 ± 0.1 for the first, 0.0192 ± 0.15 for the second.

MEVVDPQQLGMFTEGELMSVGMDTFIHRIDSTEVIYQPRRKRAKLIGKYLMGDLLGEGSYGKVKEVLDSETLCRRAVKILKKKKLRRIPNGEANVKKEIQLLRRLRHKNVIQLVDVLYNEEKQKMYMVMEYCVCGMQEMLDSVPEKRFPVCQAHGYFCQLIDGLEYLHSQGIVHKDIKPGNLLLTTGGTLKISDLGVAEALHPFAADDTCRTSQGSPAFQPPEIANGLDTFSGFKVDIWSAGVTLYNILTGLYPFEGDNIYKLFENIGKGSYAIPGDCGPPLSDLLKGMLEYEPAKRFSIRQIRQHSWFRKKHPPAEAPVPIPPSPDTKDRWRSMTVVPYLEDLHGADEDEDLFDIEDDIIYTQDFTVPGQVPEEEASHNGQRRGLPKAVCMNGTEAAQLSTKSRAEGRAPNPARKACSASSKIRRLSACKQQ [T249L] and MEVVDPQQLGMFTEGELMSVGMDTFIHRIDSTEVIYQPRRKRAKLIGKYLMGDLLGEGSYGKVKEVLDSETLCRRAVKILKKKKLRRIPNGEANVKKEIQLLRRLRHKNVIQLVDVLYNEEKQKMYMVMEYCVCGMQEMLDSVPEKRFPVCQAHGYFCQLIDGLEYLHSQGIVHKDIKPGNLLLTTGGTLKISDLGVAEALHPFAADDTCRTSQGSPAFQPPEIANGLDTFSGFKVDIWSAGVTLYNITTGLYPFEGDNIYKLFENIGKGSYAIPGDCGPPLSDLLKGMLEYEPAKRFSIRQIRQHSWFRKKHPPAEAPVPIPPSPDTKDRWRSMTVVPYLEDLHGADEDEDLFDIEDDIIYTQDFTVPGQVPEEEASHNGQRRGLPKAVCFNGTEAAQLSTKSRAEGRAPNPARKACSASSKIRRLSACKQQ [M392F] are within error of each other in STK11 functional score: 1.08 ± 0.3 for the first, 1.17 ± 0.41 for the second.
